Test results published in publication doi:10.1101/504373, “Pyrophosphate modulates stress responses via SUMOylation” (bioRxiv, 2018).

Target: the molecule itself
Experiment: immunoblot after SDS-PAGE of extracts made without DTT; total seedling protein extracted in the presence of NEM to inhibit deSUMOylation; anti-ICE1; both bands absent in ice1-2; monomer (50kD) only with DTT (5 mM) and without NEM

B1: INDUCER OF CBF EXPRESSION 1 (ICE1) (natural protein, UniProt Q9LSE2 1-494, looked up)
chain: MGLDGNNGGGVWLNGGGGEREENEEGSWGRNQEDGSSQFKPMLEGDWFSSNQPHPQDLQMLQNQPDFRYFGGFPFNPNDNLLLQHSIDSSSSCSPSQAFSLDPSQQNQFLSTNNNKGCLLNVPSSANPFDNAFEFGSESGFLNQIHAPISMGFGSLTQLGNRDLSSVPDFLSARSLLAPESNNNNTMLCGGFTAPLELEGFGSPANGGFVGNRAKVLKPLEVLASSGAQPTLFQKRAAMRQSSGSKMGNSESSGMRRFSDDGDMDETGIEVSGLNYESDEINESGKAAESVQIGGGGKGKKKGMPAKNLMAERRRRKKLNDRLYMLRSVVPKISKMDRASILGDAIDYLKELLQRINDLHNELESTPPGSLPPTSSSFHPLTPTPQTLSCRVKEELCPSSLPSPKGQQARVEVRLREGRAVNIHMFCGRRPGLLLATMKALDNLGLDVQQAVISCFNGFALDVFRAEQCQEGQEILPDQIKAVLFDTAGYAGMI
notes: Two bands were seen, a non-modified (100kD) and a modified (130kD) dimer; source: endogenous, total protein extract of liquid grown Col-0 seedlings
  stoichiometry N: 2
